# Residue numbers refer to the chain shown, from its start.
# B1: YFL-5 (Lac-A3, Lac8-2), truncated (ssDNA)
# DNA: CAGGCAGGACACCGTAACCGGGCATTTGCTCTCAATTTAGTCTCAAATTGTGGCCTGCCTG
# B2: YFL-1 (Lac-6a), truncated (ssDNA)
# DNA: AGGCAGGACACCGTAACCGGTGCATCTATGGCTACTAGCTTTTCCTGCCT
# B3: YFL-6 (Lac-A4), truncated (ssDNA)
# DNA: B2 DNA with T41C
# B4: YFL-7 (Lac-A6), truncated (ssDNA)
# DNA: GCAGGACACCGTAACGGGTGCACACTCTTATTTTTACACGAGCCAAAAATATGTCCTGC
# B5: YFL-4 (Lac-A1, Lac1-4), truncated (ssDNA)
# DNA: GCAGGACACCGTAACACGGGCTGATGCTCTCTTTATTTTACCTAAATAAAGTGTCCTGC
# Target: lactoferrin (Lac) (bovine? ("from bovine milk"), UniProt P24627 20-708)
# Test: protein microarray
# Chain of lactoferrin (Lac) (P24627 20-708): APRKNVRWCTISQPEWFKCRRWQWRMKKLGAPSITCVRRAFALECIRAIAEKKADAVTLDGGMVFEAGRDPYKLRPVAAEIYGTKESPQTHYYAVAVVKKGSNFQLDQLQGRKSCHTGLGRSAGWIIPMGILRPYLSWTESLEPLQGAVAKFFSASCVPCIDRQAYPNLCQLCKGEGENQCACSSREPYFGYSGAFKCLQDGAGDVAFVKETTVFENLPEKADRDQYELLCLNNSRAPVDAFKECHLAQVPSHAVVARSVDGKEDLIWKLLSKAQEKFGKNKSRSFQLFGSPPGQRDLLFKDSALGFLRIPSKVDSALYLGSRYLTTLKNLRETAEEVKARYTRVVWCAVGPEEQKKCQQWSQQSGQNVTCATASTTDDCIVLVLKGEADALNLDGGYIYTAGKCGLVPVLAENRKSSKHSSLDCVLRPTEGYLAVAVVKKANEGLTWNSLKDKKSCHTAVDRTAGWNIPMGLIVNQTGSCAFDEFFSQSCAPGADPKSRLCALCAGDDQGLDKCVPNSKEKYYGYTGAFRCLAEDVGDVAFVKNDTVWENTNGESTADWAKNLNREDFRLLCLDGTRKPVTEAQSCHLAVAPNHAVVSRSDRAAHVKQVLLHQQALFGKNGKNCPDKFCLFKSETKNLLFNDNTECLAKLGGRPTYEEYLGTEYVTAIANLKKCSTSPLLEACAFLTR
row,Binder,binding signal [fluorescence intensity]
1,B1,2240
2,B2,1780
3,B3,2840
4,B4,2490
5,B5,2150

# — publication PMC9062193
